According to article PMC3315801:

Target: T1, CPY*-CPY fusion protein (S. cerevisiae) (UniProt P00729)
T1 sequence (P00729 whole entry, looked up): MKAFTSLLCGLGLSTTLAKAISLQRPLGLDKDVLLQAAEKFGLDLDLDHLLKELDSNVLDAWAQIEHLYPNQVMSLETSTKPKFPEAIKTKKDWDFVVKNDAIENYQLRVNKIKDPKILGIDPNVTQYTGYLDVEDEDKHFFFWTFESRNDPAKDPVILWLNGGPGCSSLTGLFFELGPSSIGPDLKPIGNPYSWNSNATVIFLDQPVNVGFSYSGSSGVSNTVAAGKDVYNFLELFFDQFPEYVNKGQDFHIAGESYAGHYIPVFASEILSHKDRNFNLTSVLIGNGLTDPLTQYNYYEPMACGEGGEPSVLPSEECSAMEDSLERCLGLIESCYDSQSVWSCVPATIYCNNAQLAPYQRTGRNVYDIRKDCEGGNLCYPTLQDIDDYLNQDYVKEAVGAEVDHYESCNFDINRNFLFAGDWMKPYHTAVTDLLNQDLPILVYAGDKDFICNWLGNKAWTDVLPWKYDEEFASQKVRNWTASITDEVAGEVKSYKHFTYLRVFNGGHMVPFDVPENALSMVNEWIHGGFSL
Assay: co-IP

B1: Hrd1p (enzyme)
chain: MVPENRRKQLAIFVVVTYLLTFYCVYSATKTSVSFLQVTLKLNEGFNLMVLSIFILLNSTLLWQLLTKLLFGELRLIEHEHIFERLPFTIINTLFMSSLFHERYFFTVAFFGLLLLYLKVFHWILKDRLEALLQSINDSTTMKTLIFSRFSFNLVLLAVVDYQIITRCISSIYTNQKSDIESTSLYLIQVMEFTMLLIDLLNLFLQTCLNFWEFYRSQQSLSNENNHIVHGDPTDENTVESDQSQPVLNDDDDDDDDDRQFTGLEGKFMYEKAIDVFTRFLKTALHLSMLIPFRMPMMLLKDVVWDILALYQSGTSLWKIWRNNKQLDDTLVTVTVEQLQNSANDDNICIICMDELIHSPNQQTWKNKNKKPKRLPCGHILHLSCLKNWMERSQTCPICRLPVFDEKGNVVQTTFTSNSDITTQTTVTDSTGIATDQQGFANEVDLLPTRTTSPDIRIVPTQNIDTLAMRTRSTSTPSPTWYTFPLHKTGDNSVGSSRSAYEFLITNSDEKENGIPVKLTIENHEVNSLHGDGGEQIAKKIVIPDKFIQHI
Q: B1 was tested. Which inhibition of the co-precipitation in yos9Δ cells against wild-type cells did it give?
A: 70%
